Where two headings read alike, the source gives them in different places.
Assays:
Abeta 1-42 globulomer [1] = target: Abeta 1-42 globulomer (UniProt P05067); assay: MPA, 0.5 over 0 ng/mL globulomer in CSF, ZW3-08 wash
Abeta 1-42 globulomer [2] = target: Abeta 1-42 globulomer (UniProt P05067); assay: MPA, 0.5 over 0 ng/mL globulomer in CSF, ASB-14 wash
Abeta 1-42 globulomer [3] = target: Abeta 1-42 globulomer (UniProt P05067); assay: MPA, globulomer Abeta 42 RLU over average Abeta 40 RLU, ZW3-16 wash
Abeta 1-42 globulomer [4] = target: Abeta 1-42 globulomer (UniProt P05067); assay: MPA, globulomer Abeta 42 RLU over average Abeta 40 RLU, ZW3-14 wash
Abeta 1-42 globulomer [5] = target: Abeta 1-42 globulomer (UniProt P05067); assay: MPA, CSF + 0.5 ng/mL globulomer, ZW3-16 wash
Abeta 1-42 monomer [6] = target: Abeta 1-42 monomer (UniProt P05067); assay: MPA, unspiked CSF background, Brij 35 wash
Abeta 1-42 globulomer [7] = target: Abeta 1-42 globulomer (UniProt P05067); assay: MPA, globulomer Abeta 42 RLU over average Abeta 40 RLU, Empigen wash
Abeta 1-42 globulomer [8] = target: Abeta 1-42 globulomer (UniProt P05067); assay: MPA, CSF + 0.5 ng/mL globulomer, ZW3-12 wash
Abeta 1-42 globulomer [9] = target: Abeta 1-42 globulomer (UniProt P05067); assay: MPA, globulomer Abeta 42 RLU over average Abeta 40 RLU, ZW3-08 wash
Abeta 1-42 globulomer [10] = target: Abeta 1-42 globulomer (UniProt P05067); assay: MPA, CSF + 0.5 ng/mL globulomer, ASB-C8phn wash
Abeta 1-42 globulomer [11] = target: Abeta 1-42 globulomer (UniProt P05067); assay: MPA, CSF + 0.5 ng/mL globulomer, ZW3-14 wash
Abeta 1-42 globulomer [12] = target: Abeta 1-42 globulomer (UniProt P05067); assay: MPA, globulomer Abeta 42 RLU over average Abeta 40 RLU, ASB-14 wash
Abeta 1-42 monomer [13] = target: Abeta 1-42 monomer (UniProt P05067); assay: MPA, unspiked CSF background, ZW3-16 wash
Abeta 1-42 globulomer [14] = target: Abeta 1-42 globulomer (UniProt P05067); assay: 42 (globulomer) RLU over 40 (Abeta 1-40 monomer) RLU
Abeta 1-42 globulomer [15] = target: Abeta 1-42 globulomer (UniProt P05067); assay: MPA, 0.5 over 0 ng/mL globulomer in CSF, ASB-C8phn wash
Abeta 1-42 globulomer [16] = target: Abeta 1-42 globulomer (UniProt P05067); assay: MPA, 0.5 over 0 ng/mL globulomer in CSF, ZW3-14 wash
Abeta 1-42 globulomer [17] = target: Abeta 1-42 globulomer (UniProt P05067); assay: MPA, globulomer Abeta 42 RLU over average Abeta 40 RLU, Pluronic F-127 wash
Abeta 1-42 globulomer [18] = target: Abeta 1-42 globulomer (UniProt P05067); assay: MPA, 0.5 over 0 ng/mL globulomer in CSF, ZW3-12 wash
Abeta 1-42 globulomer [19] = target: Abeta 1-42 globulomer (UniProt P05067); assay: MPA, 0.5 over 0 ng/mL globulomer in CSF, ASB-16 wash
Abeta 1-40 monomer = Abeta 1-40 monomer (UniProt P05067); assay: MPA bead capture, Abeta 1-40 read-out of the CSF sample (noise)
Abeta 1-42 globulomer [20] = target: Abeta 1-42 globulomer (UniProt P05067); assay: MPA, 0.5 over 0 ng/mL globulomer in CSF, Pluronic F-127 wash
Abeta 1-42 globulomer [21] = target: Abeta 1-42 globulomer (UniProt P05067)
Abeta42 fibrils = Abeta42 fibrils (UniProt P05067); assay: MPA, serial dilutions in CSF, LoD = 2x over background
ADDL (Abeta42 aggregate) = ADDL (Abeta42 aggregate) (UniProt P05067); assay: as above
Abeta 1-42 globulomer [22] = target: Abeta 1-42 globulomer (UniProt P05067); assay: as above
[23] = target: Abeta (1-42) aggregates from Alzheimer's Disease Brain Homogenate (human) (UniProt P05067); assay: as above
ASPD (Abeta42 aggregate) = ASPD (Abeta42 aggregate) (UniProt P05067); assay: as above
Abeta 1-42 globulomer [24] = target: Abeta 1-42 globulomer (UniProt P05067); assay: MPA, pulldown in TBSTT, no added detergent wash
Abeta 1-42 globulomer [25] = target: Abeta 1-42 globulomer (UniProt P05067); assay: MPA, 0.5 over 0 ng/mL globulomer in CSF, Brij 35 wash
Abeta 1-42 globulomer [26] = target: Abeta 1-42 globulomer (UniProt P05067); assay: MPA, 0.5 over 0 ng/mL globulomer in CSF, Empigen wash
Abeta 1-42 globulomer [27] = target: Abeta 1-42 globulomer (UniProt P05067); assay: MPA, CSF + 0.5 ng/mL globulomer, Pluronic F-127 wash
Abeta 1-42 globulomer [28] = target: Abeta 1-42 globulomer (UniProt P05067); assay: MPA, globulomer Abeta 42 RLU over average Abeta 40 RLU, Brij 35 wash
Abeta 1-42 monomer [29] = target: Abeta 1-42 monomer (UniProt P05067); assay: MPA, unspiked CSF background, ASB-14 wash
Abeta 1-42 globulomer [30] = target: Abeta 1-42 globulomer (UniProt P05067); assay: MPA, CSF + 0.5 ng/mL globulomer, Empigen wash
Abeta 1-42 monomer [31] = target: Abeta 1-42 monomer (UniProt P05067); assay: MPA, unspiked CSF background, ZW3-08 wash
Abeta 1-42 monomer [32] = target: Abeta 1-42 monomer (UniProt P05067); assay: MPA, unspiked CSF background, ASB-16 wash
[33] = target: Abeta (1-42) aggregates from Alzheimer's Disease Brain Homogenate (human) (UniProt P05067); assay: MPA, serial dilutions of ADBH in CSF, LoD = 2x over background
Abeta 1-42 globulomer [34] = target: Abeta 1-42 globulomer (UniProt P05067); assay: MPA, PSR1 beads, globulomer spiked into normal CSF
Abeta 1-42 globulomer [35] = target: Abeta 1-42 globulomer (UniProt P05067); assay: MPA, CSF + 0.5 ng/mL globulomer, ASB-16 wash
Abeta 1-42 globulomer [36] = target: Abeta 1-42 globulomer (UniProt P05067); assay: MPA, PSR1 beads, globulomer spiked into buffer (TBSTT)

PSR1 (peptoid, directly conjugated to Dynal M270 beads)
S/N Abeta 42 globulomer-spiked/unspiked (Abeta 1-42 globulomer [1]): 6.8
S/N Abeta 42 globulomer-spiked/unspiked (Abeta 1-42 globulomer [2]): 8.7
S/N Abeta 42 globulomer-spiked/Abeta 40 (Abeta 1-42 globulomer [3]): 3.7
S/N Abeta 42 globulomer-spiked/Abeta 40 (Abeta 1-42 globulomer [4]): 2.2
Abeta 42 RLU, 0.5 ng/mL Average (Abeta 1-42 globulomer [5]): 731 RLU
Abeta 42 RLU, 0 ng/mL Average (Abeta 1-42 monomer [6]): 117 RLU
S/N Abeta 42 globulomer-spiked/Abeta 40 (Abeta 1-42 globulomer [7]): 2.6
Abeta 42 RLU, 0.5 ng/mL Average (Abeta 1-42 globulomer [8]): 642 RLU
S/N Abeta 42 globulomer-spiked/Abeta 40 (Abeta 1-42 globulomer [9]): 0.9
Abeta 42 RLU, 0.5 ng/mL Average (Abeta 1-42 globulomer [10]): 936 RLU
Abeta 42 RLU, 0.5 ng/mL Average (Abeta 1-42 globulomer [11]): 842 RLU
S/N Abeta 42 globulomer-spiked/Abeta 40 (Abeta 1-42 globulomer [12]): 2
Abeta 42 RLU, 0 ng/mL Average (Abeta 1-42 monomer [13]): 67 RLU
42:40 ratio (Abeta 1-42 globulomer [14]): 4.1
S/N Abeta 42 globulomer-spiked/unspiked (Abeta 1-42 globulomer [15]): 9.3
S/N Abeta 42 globulomer-spiked/unspiked (Abeta 1-42 globulomer [16]): 7.7
S/N Abeta 42 globulomer-spiked/Abeta 40 (Abeta 1-42 globulomer [17]): 0.9
S/N Abeta 42 globulomer-spiked/unspiked (Abeta 1-42 globulomer [18]): 7.1
S/N Abeta 42 globulomer-spiked/unspiked (Abeta 1-42 globulomer [19]): 8.2
average RLU (40) (Abeta 1-40 monomer): 234 RLU
S/N Abeta 42 globulomer-spiked/unspiked (Abeta 1-42 globulomer [20]): 6.3
LoD of globulomer, RLU (S/N = 2) (Abeta 1-42 globulomer [21]): 199 RLU
LoD of globulomer, pg/mL (Cal) (Abeta 1-42 globulomer [21]): 2.33 pg/mL
S/N at 25.3 pg/mL (Abeta 1-42 globulomer [21]): 10.3
LoD (Abeta42 fibrils): 50 pg/mL
LoD (ADDL (Abeta42 aggregate)): 200 pg/mL
LoD (Abeta 1-42 globulomer [22]): 75 pg/mL
LoD [23]: < 5 pg/mL
LoD (ASPD (Abeta42 aggregate)): 200 pg/mL
LoD of globulomer, RLU (S/N = 2) (Abeta 1-42 globulomer [24]): 204 RLU
LoD of globulomer, pg/mL (Cal) (Abeta 1-42 globulomer [24]): 2.34 pg/mL
S/N at 25.3 pg/mL (Abeta 1-42 globulomer [24]): 13.7
S/N Abeta 42 globulomer-spiked/unspiked (Abeta 1-42 globulomer [25]): 6.3
S/N Abeta 42 globulomer-spiked/unspiked (Abeta 1-42 globulomer [26]): 8.7
Abeta 42 RLU, 0.5 ng/mL Average (Abeta 1-42 globulomer [27]): 739 RLU
S/N Abeta 42 globulomer-spiked/Abeta 40 (Abeta 1-42 globulomer [28]): 1
Abeta 42 RLU, 0 ng/mL Average (Abeta 1-42 monomer [29]): 89.7 RLU
Abeta 42 RLU, 0.5 ng/mL Average (Abeta 1-42 globulomer [30]): 670 RLU
Abeta 42 RLU, 0 ng/mL Average (Abeta 1-42 monomer [31]): 97.7 RLU
Abeta 42 RLU, 0 ng/mL Average (Abeta 1-42 monomer [32]): 95.7 RLU
LoD (amol) [33]: < 0.2 amol
limit of detection (LoD) (Abeta 1-42 globulomer [34]): 10 pM
Abeta 42 RLU, 0.5 ng/mL Average (Abeta 1-42 globulomer [35]): 789 RLU
limit of detection (LoD) (Abeta 1-42 globulomer [36]): 5 pM
